B1: EEHEE_rd3_0130 (parent)
chain: TKIIVNGKTFTAPTEEEAQKIAEKLAKKAGLTVHKKNGTFELK
B2: r11_951_TrROS_Hall (parent)
chain: KKKYVIKVYFEDTGKEVEIEAESKEEALEAAKRLAEELGLKIKKVEIYP

Variants of: B1
Assay: folding stability dG (cDNA display proteolysis); higher = more stable
Details: PBS, room temperature

Variant | folding stability dG [kcal/mol]
I3E | -0.908
I3R | -0.394
I3T | -0.896
I3Q | -0.664
I3L | -0.098
I3F | 0.035
I3Y | 0.08
I3S | -0.742
I3W | -0.228
I3H | -0.416
I3P | -0.552
I3V | 0.523
I3D | -0.633
I3M | -0.368
V5N | -0.497
V5M | 0.826
V5T | -0.197
V5H | 0.397
V5K | -0.361
V5Q | -0.462
V5L | 0.73
V5S | -0.322
V5W | 1.48

Variant | folding stability dG [kcal/mol]
V5C | 1.63
V5G | -0.75
V5Y | 1.4
V5A | 0.171
V5I | 1.13
V5D | -0.878
V5F | 1.31
V5E | -0.633
V5P | -0.548
V5R | -0.49
K2M | 0.746
K2L | 0.93
K2C | 1.16
K2W | 0.519
K2E | 0.085
K2P | 0.169
K2N | 0.108
K2S | 0.364
K2Q | 0.574
K2A | 0.458
K2G | -0.359
K2Y | 0.641
K2D | 0.156

Variant | folding stability dG [kcal/mol]
K2T | 0.448
K2R | 0.793
K2H | 0.273
K2I | 0.742
K2F | 0.565
K2V | 0.501
N6G | 1.02
N6E | 0.325
N6M | 0.863
N6L | 0.861
N6I | 0.222
N6V | -0.097
N6S | 0.36
N6R | 0.555
N6P | -0.076
N6F | 1.61
N6D | 0.319
N6H | 0.793
N6W | 1.47
N6K | 0.266
N6T | -0.318
N6A | 0.745
N6Y | 1.42

Variant | folding stability dG [kcal/mol]
N6C | 2.05
N6Q | 0.329
G7D | -0.326
G7H | 0.106
G7E | -0.721
G7F | 0.265
G7A | 0.007
G7C | 0.961
I4V | 0.695
I4Q | 0.068
I4T | 0.449
I4A | -0.213
I4W | 0.365
I4L | 0.583
I4D | -0.441
I4N | -0.074
I4G | -0.461
I4R | 0.615
I4H | 0.173
I4E | -0.066
I4M | 0.561
I4K | 0.465
I4Y | 0.689

Variant | folding stability dG [kcal/mol]
I4F | 0.575
I4S | 0.124
I4P | -0.499
T1H | 1.05
T1A | 0.581
T1Q | 0.151
T1G | 0.627
T1V | 1.28
T1R | 0.322
T1C | 0.97
T1D | -0.934
T1M | 0.565
T1Y | 2.19
T1I | 1.37
T1N | 0.378
T1W | 2.99
T1P | 0.553
T1L | 0.508
T1K | 0.145
T1E | -0.989
T1S | 0.636
T1F | 2.15

Variants of: B2
Assay: as above
Details: PBS, room temperature

Variant | folding stability dG [kcal/mol]
A31H | 2.62
A31F | 4.48
S23T | 4.35
K3G | 4.03
R33I | 4.28
I19G | 3.31
I19Q | 3.59
E25W | 4.25
E25Q | 4.18
E25D | 4.58
I42F | 4.01
I42P | 3.23
L28W | 4.64
V8D | 1.26
E20A | 4.33
E20W | 4.49
G39D | 3.99
V17G | 4.05
K1W | 4.38
K2V | 4.34
E22V | 4.29
E22H | 4.49
Y48W | 4.51
I47A | 4.17
V5F | 4.42
V5W | 4.62
A30L | 4.66

Variant | folding stability dG [kcal/mol]
K7M | 4.1
L40T | 3.92
L40Q | 4.07
P49H | 4.93
P49N | 4.68
G14Q | 4.39
D12I | 4.66
D12G | 4.54
K24W | 4.51
E36R | 4.91
E16L | 4.29
E16I | 4.55
E16H | 4.29
A35T | 3.84
F10I | 3.28
K43H | 4.33
E46Y | 4.61
E46K | 4.22
E46H | 4.53
K32M | 4.68
E11V | 4.83
E11K | 4.64
K15R | 4.19
K15C | 3.19
E26I | 4.22
L34C | 3.85
